The assay concerns the target T1, ErbB2-Domain4 protein (human, UniProt P04626 1-675).
T1 construct: Made in E. coli BL21(DE3) from pET-28a (NdeI/XhoI), dissolved from inclusion bodies in 8 M urea and purified on a Ni column; also called ErbB2-Domain4-encoded protein
The assay is described as follows: indirect ELISA, ErbB2-Domain4 protein coated at 100 ng/well, antibody in serial dilution, A450. Background: An ELISA detects its analyte on a solid surface through an enzyme-linked reagent.

Experimental findings from patent publication EP3783015A1 (Beijing DCTY Biotech Co., Ltd., dated 2021) are described below.

B1: mouse anti-human ErbB2 monoclonal antibody 10A6 (antibody, mouse IgG1, kappa, V domains shown)
VH: QVTLKESGPGILQPSQTLSLTCSFSGFSLSTSGMGVSWIRQPSGKGLEWLAHIYWDDDKRYNPSLKSRLTISKDSSNKQVFLKFTSVDTADTATYYCAHFAYYNYDGAVDSWGQGTSVTVSS
VL: DIVMSQSPSSLTVSAGEKVSMSCKSSQSLLHSRTRKNYLAWYQQKPGQSPKLLIYWASTRESGVPDRFTGSGSGTDFTLTISSVQAEDLAVYYCKQSYSLYTFGGGTKLEIKR
notes: Mouse IgG1-Kappa, purified from hybridoma supernatant on protein G; also called 10A6 clonal antibody protein
As usually defined, the EC50 is the concentration that produces a half-maximal response. A low value points to a more potent agent. In turn, B1 registered an EC50 of 0.1 µM.
